Laboratory results: paper PMC2894052

Target: recombinant Dnmt1 protein (Dnmt1^R), not treated with a kinase (human) (UniProt P26358)
Sequence of UniProt P26358 (P26358 whole entry): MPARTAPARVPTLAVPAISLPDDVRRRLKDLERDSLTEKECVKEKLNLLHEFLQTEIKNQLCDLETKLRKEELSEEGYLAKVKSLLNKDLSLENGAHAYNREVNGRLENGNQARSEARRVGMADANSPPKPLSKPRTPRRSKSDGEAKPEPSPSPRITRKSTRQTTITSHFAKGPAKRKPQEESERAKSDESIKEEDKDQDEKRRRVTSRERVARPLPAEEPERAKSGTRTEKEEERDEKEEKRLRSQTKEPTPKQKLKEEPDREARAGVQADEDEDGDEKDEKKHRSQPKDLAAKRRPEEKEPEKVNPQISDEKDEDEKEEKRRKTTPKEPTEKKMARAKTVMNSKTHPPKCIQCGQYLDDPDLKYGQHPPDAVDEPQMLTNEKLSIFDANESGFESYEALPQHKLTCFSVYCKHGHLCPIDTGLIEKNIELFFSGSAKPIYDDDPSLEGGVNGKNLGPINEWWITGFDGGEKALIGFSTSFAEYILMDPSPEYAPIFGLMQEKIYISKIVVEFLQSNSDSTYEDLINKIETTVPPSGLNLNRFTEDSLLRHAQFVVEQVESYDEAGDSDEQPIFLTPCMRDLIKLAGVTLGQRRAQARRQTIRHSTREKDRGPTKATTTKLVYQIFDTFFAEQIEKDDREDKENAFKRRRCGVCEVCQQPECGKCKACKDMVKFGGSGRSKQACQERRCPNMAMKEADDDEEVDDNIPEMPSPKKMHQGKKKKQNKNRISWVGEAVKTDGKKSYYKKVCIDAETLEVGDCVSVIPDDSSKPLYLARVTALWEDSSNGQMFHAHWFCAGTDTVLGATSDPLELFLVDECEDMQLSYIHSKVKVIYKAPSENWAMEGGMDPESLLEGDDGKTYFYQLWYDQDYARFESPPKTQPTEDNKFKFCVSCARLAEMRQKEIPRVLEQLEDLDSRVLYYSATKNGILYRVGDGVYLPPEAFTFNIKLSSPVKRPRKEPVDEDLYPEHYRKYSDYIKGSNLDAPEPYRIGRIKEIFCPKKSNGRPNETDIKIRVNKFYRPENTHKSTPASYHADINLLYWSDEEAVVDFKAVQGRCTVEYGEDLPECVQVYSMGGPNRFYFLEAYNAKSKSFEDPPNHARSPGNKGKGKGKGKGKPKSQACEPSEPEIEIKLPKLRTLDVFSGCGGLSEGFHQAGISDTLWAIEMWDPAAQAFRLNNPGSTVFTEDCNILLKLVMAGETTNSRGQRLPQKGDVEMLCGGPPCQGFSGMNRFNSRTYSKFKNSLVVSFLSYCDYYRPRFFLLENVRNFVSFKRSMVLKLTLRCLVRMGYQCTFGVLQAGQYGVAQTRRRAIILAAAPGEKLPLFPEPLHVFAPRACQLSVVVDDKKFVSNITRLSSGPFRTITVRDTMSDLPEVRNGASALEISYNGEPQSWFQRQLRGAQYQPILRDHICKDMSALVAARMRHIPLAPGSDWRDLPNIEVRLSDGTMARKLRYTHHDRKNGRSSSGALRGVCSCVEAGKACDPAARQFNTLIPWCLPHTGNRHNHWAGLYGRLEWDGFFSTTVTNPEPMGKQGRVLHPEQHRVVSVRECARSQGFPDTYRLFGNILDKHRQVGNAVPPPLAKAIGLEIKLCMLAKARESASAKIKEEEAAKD

Q: Which mMTase activity (DMB assay, incorporation of 3H-radiolabelled methyl groups) of Dnmt1 with an equimolar quantity of UHRF1, against that of pDnmt1^S127/S143 and pDnmt1^S127 does the source give for “GST-UHRF1 (from UniProt Q96T88 1-793) (natural protein)” here?
A: 4 fold

Q: For “GST-PCNA (from UniProt P12004 1-261) (natural protein)”, which mMTase activity (DMB assay, incorporation of 3H-radiolabelled methyl groups) of Dnmt1 with an equimolar quantity of PCNA, against that of pDnmt1^S127/S143 and pDnmt1^S127 is on record?
A: 5 fold
